# Laboratory results from US20090197330A1 (BIOMEDICS, published 2009).
# T1: human CD20 antigen (human, UniProt P11836 1-297)
# T1 construct: whole, on cells; also called CD20/CHO cells; CD20 on Raji cells
# T1 sequence (looked up): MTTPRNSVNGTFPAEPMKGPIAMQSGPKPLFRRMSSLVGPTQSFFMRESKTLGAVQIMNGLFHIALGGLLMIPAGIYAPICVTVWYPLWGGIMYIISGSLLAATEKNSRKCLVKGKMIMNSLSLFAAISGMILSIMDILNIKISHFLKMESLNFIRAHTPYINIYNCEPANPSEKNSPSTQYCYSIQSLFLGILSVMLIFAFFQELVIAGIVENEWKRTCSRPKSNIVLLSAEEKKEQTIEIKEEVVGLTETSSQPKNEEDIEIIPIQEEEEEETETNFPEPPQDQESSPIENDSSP
# B1: murine anti-CD20 monoclonal antibody 1K1422 (antibody, V domains shown)
# VH: QVQLQQPGAELVKPGASVKMSCRASGYTFTNYNMHWIKQTPGQGLEWIGAIYPGSGDTSYNRKFKGKATLTADTSSSTAYMQFSSLTSADSAVYYCARFTYYYGGTYGAMDYWGQGTSVTVSL
# VL: QIVLTQSPPIMSASLGEEITLTCSASSRVSYMLWYQQKSGTSPKLLIYSTSNLASGVPSRFSGSGSGTFYSLTISSVEAEDAADYYCHQWTSNPCTFGGGTKLEIK
# notes: Mouse monoclonal antibody from a hybridoma
# Tests used:
# human CD20 antigen [1] = molecular target: T1, human CD20 antigen; test: SB cell-ELISA, antibody at 32 ng/ml
# Excerpt: (§1) Several murine anti-CD20 monoclonal antibodies and 2B8 were reacted by using 96-well plates to which the SB cells, Raji cells, CD20/CHO cells and CD20 CHO parent cell line were adhered.
# human CD20 antigen [2] = molecular target: T1, human CD20 antigen; test: SB cell-ELISA, antibody at 10 ng/ml
# Excerpt: as §1
# human CD20 antigen [3] = molecular target: T1, human CD20 antigen; test: CD20/CHO cell-ELISA, antibody at 32 ng/ml
# human CD20 antigen [4] = molecular target: T1, human CD20 antigen; test: CD20/CHO cell-ELISA, antibody at 1000 ng/ml
# Excerpt: as §1
# human CD20 antigen [5] = molecular target: T1, human CD20 antigen; test: SB cell-ELISA, antibody at 320 ng/ml
# Excerpt: as §1
# human CD20 antigen [6] = molecular target: T1, human CD20 antigen; test: SB cell-ELISA, antibody at 100 ng/ml
# Excerpt: as §1
# human CD20 antigen [7] = molecular target: T1, human CD20 antigen; test: CD20/CHO cell-ELISA, antibody at 3 ng/ml
# human CD20 antigen [8] = molecular target: T1, human CD20 antigen; test: SB cell-ELISA, antibody at 1000 ng/ml
# Excerpt: as §1
# human CD20 antigen [9] = molecular target: T1, human CD20 antigen; test: CD20/CHO cell-ELISA, antibody at 320 ng/ml
# Excerpt: as §1
# human CD20 antigen [10] = molecular target: T1, human CD20 antigen; test: Raji cell-ELISA, antibody at 320 ng/ml
# Excerpt: as §1
# human CD20 antigen [11] = molecular target: T1, human CD20 antigen; test: Raji cell-ELISA, antibody at 32 ng/ml
# Excerpt: as §1
# human CD20 antigen [12] = molecular target: T1, human CD20 antigen; test: Raji cell-ELISA, antibody at 1000 ng/ml
# Excerpt: as §1
# human CD20 antigen [13] = molecular target: T1, human CD20 antigen; test: CD20/CHO cell-ELISA, antibody at 100 ng/ml
# human CD20 antigen [14] = molecular target: T1, human CD20 antigen; test: CD20/CHO cell-ELISA, antibody at 10 ng/ml
# human CD20 antigen [15] = molecular target: T1, human CD20 antigen; test: SB cell-ELISA, antibody at 3 ng/ml
# human CD20 antigen [16] = molecular target: T1, human CD20 antigen; test: Raji cell-ELISA, antibody at 3 ng/ml
# human CD20 antigen [17] = molecular target: T1, human CD20 antigen; test: Raji cell-ELISA, antibody at 100 ng/ml
# Excerpt: as §1
# human CD20 antigen [18] = molecular target: T1, human CD20 antigen; test: Raji cell-ELISA, antibody at 10 ng/ml
# Excerpt: as §1
# human CD20 antigen [19] = molecular target: T1, human CD20 antigen; test: CD20/CHO cell-ELISA, negative control, concentration not clear
# human CD20 antigen [20] = molecular target: T1, human CD20 antigen; test: SB cell-ELISA, negative control, concentration not clear
# human CD20 antigen [21] = molecular target: T1, human CD20 antigen; test: Raji cell-ELISA, negative control, concentration not clear
# human CD20 antigen [22] = molecular target: T1, human CD20 antigen; test: CD20/CHO cell-ELISA, antibody at 10 ng/ml; remark: listed apart in the source
# Excerpt: as §1
# human CD20 antigen [23] = molecular target: T1, human CD20 antigen; test: CD20/CHO cell-ELISA, antibody at 100 ng/ml; remark: listed apart in the source
# Excerpt: as §1
# human CD20 antigen [24] = molecular target: T1, human CD20 antigen; test: CD20/CHO cell-ELISA, antibody at 32 ng/ml; remark: listed apart in the source
# Excerpt: as §1
# human CD20 antigen [25] = molecular target: T1, human CD20 antigen; test: CD20/CHO cell-ELISA, antibody at 3 ng/ml; remark: listed apart in the source
# Excerpt: as §1
Molecule,A492 (human CD20 antigen [1]),A492 (human CD20 antigen [2]),A492 (human CD20 antigen [4]),A492 (human CD20 antigen [5]),A492 (human CD20 antigen [6]),A492 (human CD20 antigen [8]),A492 (human CD20 antigen [9]),A492 (human CD20 antigen [10]),A492 (human CD20 antigen [11]),A492 (human CD20 antigen [12]),A492 (human CD20 antigen [17]),A492 (human CD20 antigen [18]),other results
2B8 (antibody),0.038 A492,0.037 A492,2.29 A492,0.091 A492,0.045 A492,0.337 A492,1.66 A492,0.121 A492,0.038 A492,0.329 A492,0.055 A492,0.034 A492,A492 (human CD20 antigen [3]): 0.561 A492; A492 (human CD20 antigen [7]): 0.089 A492; A492 (human CD20 antigen [13]): 1.09 A492; A492 (human CD20 antigen [14]): 0.174 A492; A492 (human CD20 antigen [15]): 0.053 A492; A492 (human CD20 antigen [16]): 0.046 A492
NC,,,,,,,,,,,,,A492 (human CD20 antigen [19]): 0.07 A492; A492 (human CD20 antigen [20]): 0.028 A492; A492 (human CD20 antigen [21]): 0.035 A492
B1,0.039 A492,0.036 A492,2.23 A492,0.147 A492,0.071 A492,0.403 A492,1.33 A492,0.277 A492,0.057 A492,0.748 A492,0.121 A492,0.046 A492,A492 (human CD20 antigen [22]): 0.105 A492; A492 (human CD20 antigen [23]): 0.842 A492; A492 (human CD20 antigen [24]): 0.238 A492; A492 (human CD20 antigen [25]): 0.068 A492
